# Assay results published in publication PMC10285447.
# Columns and labels:
# [1] = molecular target: H4-IgM-P (pentameric H4 IgM) (human) (UniProt P01591); assay: ELISA
# [2] = molecular target: P5C3-IgM-P (pentameric P5C3 IgM) (human) (UniProt P01591); assay: ELISA; […] (from 500 ng/mL with P5C3, […]
substance,measurement,setting,value
"SARS-CoV-2 spike protein RBD (Wuhan strain), recombinant (from UniProt P0DTC2 319-541) (domain or fragment)",EC50,[1],0.169 nM
same,EC50,[2],0.016 nM
